{"source": "paper PMC6025827", "about": "(Nature structural & molecular biology, 2018)", "biological_target": "the molecule itself", "assay": "crystal structure"}
{"protein": "miTRPV2QM (minimal rabbit TRPV2 construct with the four point mutations F470S, L505M, L508T and Q528E) (domain or fragment) LNYRKGAGASQPDLNRFDRDRLFNVVARGNPEDLAGLLEYLRRTSKYLTDSEYTEGSTGKTCLMKAVLNLQDGVNACIQPLLEIDRDSGNPQPLVNAQCTDEYYRGHSALHIAIEKRSLQCVKLLVENGANVHAKACGHFFQKNQDTCFYFGELPLSLAACTKQWDVVNYLLENPHQPASLQAQDSLGNTVLHALVMIADDSAENSALVVRMYDGLLQAGARLCPNVQLEGIPNLEGLTPLKLAAKEGKIEIFKHILQREFSAPCQSLSRKFTEWCYGPVRVSLYDLASVDSWEENSVLEIIAFHSRSPHRHRMVVLEPLNKLLQAKWDRLIPRFCFNFLCYLVYMLIFTAVAYHQPALEKQGFPPLKATAGNSMLLLGHILILLGGVYLLLGQLWYFWRRRLFIWISFMDSYSEILFLLQALLTVLSQVLCFLAIEWYLPLLVSSLVMGWTNLLYYTRGFQHTGIYSVMIEKVILRDLLRFLLVYLVFLFGFAVALVSLSREAQDEAPPYRSILDASLELFKFTIGMGELAFQEQLRFRGVVLLLLLAYVLLTYVLLLNMLIALMSETVNSVATDSWSIWKLQKAISVLEMENGYWWCRRKKQRAGVMLTVGTRPDGSPDERWCFRVGEMNWATWEQTLPRTLC", "values": [{"measurement": "stoichiometry N", "value": 4}]}
